Experimental data: US20190112365A1 (EISAI R AND D MANAGEMENT, published 2019)
Changes are numbered by the printed parent chain.

B1: recombinant ms7G6, mouse IgG2b (antibody, V domains shown)
VH: QVQLLQPGAELVKPGASVIMSCKASGYTFTTYWITWVKQRPGQGLEWIGDIYPGSSICNYNEKFKSKATLTVDTSSSTAYMQLNSLTSEDSAVYYCAREDGYDAWFAYWGQGTLVTVSA
VL: DVLMTQTPLSLPVSLGDQASISCRSSQSILHSNGNTYLEWYLQKPGQSPKLLICKVSNRFSGVPDRFSGSGSGTDFTLKISRVEAEDLGVYYCFQGSHVPFTFGSGTKLEIK
notes: Recombinant material, mouse IgG2b
B2: recombinant ms7G6, mouse IgG2a (antibody, V domains shown)
VH: B1 VH
VL: B1 VL
notes: Recombinant material, mouse IgG2a
B3: 7G6-HCzu14-LCzu12 (antibody, human IgG1, kappa, V domains shown)
VH: EVQLLESGGGLVQPGGSLRLSCAASGYTFTTYWITWVRQAPGKGLEWVGDIYPGSSICNYADKFKGRFTISVDNSKSTAYLQMNSLRAEDTAVYYCAREDGYDAWFAYWGQGTLVTVSS
VL: DVQMTQSPSSLSASVGDRVTITCRSSQSILHSNGNTYLEWYQQKPGKAPKLLICKVSNRFSGVPSRFSGSGSGTDFTLTISSLQPEDFATYYCFQGSHVPFTFGQGTKLEIKR
notes: humanized, human IgG1 kappa
B4: 7G6-HCzu16-LCzu12 (antibody, human IgG1, kappa, V domains shown)
VH: B3 VH with G49S, A61N, D62E, G66S, S77N
VL: B3 VL
notes: humanized, human IgG1 kappa
B5: 7G6-HCzu20-LCzu12 (antibody, human IgG1, kappa, V domains shown)
VH: B3 VH with G49S, V72R, S77N, A79L, R98K
VL: B3 VL
notes: humanized, human IgG1 kappa
B6: 7G6-HCzu19-LCzu12 (antibody, human IgG1, kappa, V domains shown)
VH: B3 VH with G49S, V72R, S77N, A79L
VL: B3 VL
notes: humanized, human IgG1 kappa
B7: 7G6-HCzu18-LCzu12 (antibody, human IgG1, kappa, V domains shown)
VH: B3 VH with G49S, A61N, D62E, G66S, V72R, S77N, A79L
VL: B3 VL
notes: humanized, human IgG1 kappa
B8: 7G6-HCzu15-LCzu12 (antibody, human IgG1, kappa, V domains shown)
VH: B3 VH with A61N, D62E, G66S, S77N
VL: B3 VL
notes: humanized, human IgG1 kappa

Each binder was assayed against T1, Human Tau 2N4R, wild type, recombinant full length (human, UniProt P10636 2-758) (assay: SPR BIAcore, mAb captured by anti-mouse IgG, Tau flowed, 1:1 Langmuir).
T1 construct: Full length 2N4R isoform; monomer in SPR and ELISA; heparin-induced aggregates or seeds in the functional assays; also called Tau441; Tau-441
T1 sequence (P10636 other isoform, or with tags, fused parts or gaps limits assumed): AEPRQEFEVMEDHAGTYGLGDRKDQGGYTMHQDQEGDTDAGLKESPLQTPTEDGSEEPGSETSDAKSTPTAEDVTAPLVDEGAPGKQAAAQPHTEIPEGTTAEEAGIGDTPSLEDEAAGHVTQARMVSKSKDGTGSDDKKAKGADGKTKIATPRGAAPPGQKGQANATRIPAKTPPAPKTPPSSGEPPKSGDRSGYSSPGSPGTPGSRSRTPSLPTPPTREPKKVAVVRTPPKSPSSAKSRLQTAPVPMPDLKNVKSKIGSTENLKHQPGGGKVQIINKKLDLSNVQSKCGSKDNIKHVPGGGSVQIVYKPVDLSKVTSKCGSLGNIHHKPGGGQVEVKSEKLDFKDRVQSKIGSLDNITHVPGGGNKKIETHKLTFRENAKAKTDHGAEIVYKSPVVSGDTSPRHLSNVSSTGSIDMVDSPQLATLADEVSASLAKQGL
Description: (§1) All experiments were performed using a BIAcore™ T-100 instrument (GE Healthcare). 10 μL anti-human IgG (monoclonal mouse anti-human Fc) from human antibody capture kit (GE Healthcare) was diluted to 25 μL/mL in 200 μL final immobilization buffer (10 mM sodium acetate, pH 5.0). The flow rate was set to 5 μL/min, flowpath 1. Fifty μL N-hydroxysuccinamide (NETS) and 50 μL 1-ethyl-3-(3-dimethylaminopropyl) carbidiimide (EDC) were mixed and injected for 420 sec to activate the CM5 chip surface. The diluted antibody was injected for 360 seconds followed by 1 M ethanolamine for 420 seconds. The flowpath was then switched to flowpath 2. A new EDC/NHS mixture was prepared and the procedure was repeated for flow cell 2. The surface was conditioned by 2 injections of 30 sec using flowpath 1, 2 at 30 μL/min of 3M MgCl₂. For the anti-mouse surface, 10 μL anti-mouse IgG (polyclonal rabbit anti-mouse IgG) from mouse antibody capture kit (GE Healthcare) was diluted to 30 μL/mL in 324 μL final immobilization buffer (10 mM sodium acetate, pH 5.0). The flow rate was set to 5 μL/min, flowpath 3. Fifty μL NHS and 50 μL EDC were mixed and injected for 420 sec to activate the chip surface. The diluted antibody was injected for 420 sec. 1 M ethanolamine was injected for 420 sec. Flow path was switched to flowpath 4. A new EDC/NHS mixture was prepared and the procedure was repeated for flow cell 4. The surface was conditioned by 2 injections of 30 sec using flowpath 3, 4 at 30 μL/min of 10 mM glycine, pH 1.7.
(§2) Binding of humanized and mouse antibodies were analyzed by BIAcore™ to determine their relative association rates (ka), dissociation rates (kd), and equilibrium binding constants (KD). Anti-mouse or anti-human antibodies were immobilized on a CM5 chip and sample mAbs were captured on the chip. 2N4R Tau was flowed over the chip and binding observed. The binding constants kₐ, kd, and KD were determined using a 1:1 Langmuir fitting model. Both 7G6-HCzu12-based mAbs had similar kₐ and kd values (Table 8). However, the kₐ of 7G6-HCzu11 was decreased, though the kd was unaffected. Therefore, human residues in the Vh3 framework impact binding to Tau.
B1 showed a Kd of 4.17 nM, a koff of 0.00156 s⁻¹ and a kon of 373000 M⁻¹ s⁻¹. B2 showed a Kd of 2.73 nM, a koff of 0.0015 s⁻¹ and a kon of 549000 M⁻¹ s⁻¹.

Each binder was assayed against T1, Human Tau 2N4R, wild type, recombinant … (assay: SPR BIAcore, mAb captured by anti-human IgG, Tau flowed, 1:1 Langmuir).
Description: as §1, §2
Binder B3 has a Kd of 0.133 nM, a koff of 0.000194 s⁻¹ and a kon of 1.46e+06 M⁻¹ s⁻¹. For B4, the Kd was 0.114 nM, the koff was 0.000174 s⁻¹ and the kon was 1.53e+06 M⁻¹ s⁻¹. With B5 the Kd was 0.119 nM, the koff was 0.000136 s⁻¹ and the kon was 1.14e+06 M⁻¹ s⁻¹. With B6 the Kd was 0.121 nM, the koff was 0.000152 s⁻¹ and the kon was 1.25e+06 M⁻¹ s⁻¹. In the case of B7, the Kd is reported as 0.0815 nM, the koff is reported as 0.000128 s⁻¹ and the kon is reported as 1.57e+06 M⁻¹ s⁻¹. With B8 the Kd was 0.138 nM, the koff was 0.000278 s⁻¹ and the kon was 2.02e+06 M⁻¹ s⁻¹.

Target: T1, Human Tau 2N4R, wild type, recombinant …
Assay: SPR BIAcore, mAb captured by anti-mouse IgG, Tau flowed, 1:1 Langmuir
Remark: another data set of the same source
Description: as §1, §2
In the case of B1, the Kd is reported as 4.17 nM, the koff is reported as 0.00156 s⁻¹ and the kon is reported as 373000 M⁻¹ s⁻¹. B2 gave a Kd of 2.73 nM, a koff of 0.0015 s⁻¹ and a kon of 549000 M⁻¹ s⁻¹.
